# According to patent publication US7674604:
# Key:
# [1] = molecular target: LFA-1 mutant K287C/K294C (αL K287C/K294C with β2) on 293T or K562 transfectants (human) (UniProt P05107); test: flow cytometry on transfectants
# [2] = molecular target: isolated K287C/K294C αL I-domain (V130-A338) expressed on K562 cells by the PDGF receptor transmembrane domain (human) (UniProt P20701); test: flow cytometry on K562 transfectants
# [3] = molecular target: LFA-1 mutant K287C/K294C (αL K287C/K294C with β2) on 293T or K562 transfectants (human) (UniProt P05107); test: flow cytometry, 293T, normalized to TS2/4
# [4] = molecular target: LFA-1 mutant L289C/K294C (αL L289C/K294C with β2) on 293T or K562 transfectants (human) (UniProt P05107); test: flow cytometry, 293T, normalized to TS2/4
# [5] = molecular target: LFA-1 single cysteine substitution mutant K287C on 293T transfectants (human) (UniProt P05107); test: flow cytometry, 293T, normalized to TS2/4
# [6] = molecular target: LFA-1 single cysteine substitution mutant K294C on 293T transfectants (human) (UniProt P05107); test: flow cytometry, 293T, normalized to TS2/4
# [7] = molecular target: LFA-1 single cysteine substitution mutant L289C on 293T transfectants (human) (UniProt P05107); test: flow cytometry, 293T, normalized to TS2/4
# [8] = molecular target: LFA-1 mutant K287C/K294C (αL K287C/K294C with β2) on 293T or K562 transfectants (human) (UniProt P05107); test: flow cytometry, K562, normalized to TS2/4
# [9] = molecular target: LFA-1 mutant L289C/K294C (αL L289C/K294C with β2) on 293T or K562 transfectants (human) (UniProt P05107); test: flow cytometry, K562, normalized to TS2/4
# [10] = molecular target: LFA-1 mutant K287C/K294C (αL K287C/K294C with β2) on 293T or K562 transfectants (human) (UniProt P05107); test: inhibition of adhesion of K562 transfectants to immobilized ICAM-1
# [11] = molecular target: wild-type LFA-1 (αL/β2 complex) expressed on 293T or K562 transfectants (human) (UniProt P05107); test: inhibition of adhesion of K562 transfectants (+CBRLFA-1/2) to immobilized ICAM-1
# [12] = molecular target: recombinant ICAM-1 Fc chimera immobilized on the BIAcore sensor chip (UniProt P05362); test: BIAcore; fit of dissociation phase, 1:1 model; Table 6 kinetic study; Koff from a 1:1 fit of the dissociation phase
# Sequence of recombinant ICAM-1 Fc chimera immobilized on the BIAcore sensor chip (P05362 28-480 limits assumed, stated change not applied): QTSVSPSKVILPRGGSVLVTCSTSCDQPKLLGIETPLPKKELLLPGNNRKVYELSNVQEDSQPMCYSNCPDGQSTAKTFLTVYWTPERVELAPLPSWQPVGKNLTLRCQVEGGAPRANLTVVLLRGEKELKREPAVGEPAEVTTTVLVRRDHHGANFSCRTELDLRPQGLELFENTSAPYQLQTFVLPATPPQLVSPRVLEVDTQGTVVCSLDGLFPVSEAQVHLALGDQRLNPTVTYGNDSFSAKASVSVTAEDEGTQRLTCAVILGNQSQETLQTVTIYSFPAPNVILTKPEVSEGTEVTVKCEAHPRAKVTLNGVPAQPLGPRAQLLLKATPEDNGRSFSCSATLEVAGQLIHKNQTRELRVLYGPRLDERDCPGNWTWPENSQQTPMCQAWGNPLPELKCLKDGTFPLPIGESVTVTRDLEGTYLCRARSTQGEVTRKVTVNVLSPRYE
# [13] = molecular target: recombinant ICAM-1 Fc chimera immobilized on the BIAcore sensor chip (UniProt P05362); test: BIAcore; Scatchard plot at steady state; Table 6 kinetic study; KD from Scatchard plots at steady state, millimolar affinity
# [14] = molecular target: recombinant ICAM-1 Fc chimera immobilized on the BIAcore sensor chip (UniProt P05362); test: BIAcore; Kon calculated by Koff/KD; Table 6 kinetic study; Kon calculated as Koff/KD from steady-state data, very weak binding
# Sequence of isolated K287C/K294C αL I-domain (V130-A338) expressed on K562 cells by the PDGF receptor transmembrane domain (human) (P20701 155-363 K312C/K319C limits assumed): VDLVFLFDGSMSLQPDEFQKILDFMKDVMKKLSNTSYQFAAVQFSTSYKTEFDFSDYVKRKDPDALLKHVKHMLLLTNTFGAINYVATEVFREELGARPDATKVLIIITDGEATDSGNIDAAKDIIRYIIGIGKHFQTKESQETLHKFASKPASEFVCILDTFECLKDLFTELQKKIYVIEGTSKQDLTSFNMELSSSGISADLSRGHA
% of wild-type binding (% of wild-type) [1],% of binding to the wild-type I-domain (% of wild-type I-domain) [2],% wild-type binding (% of wild-type) [3],% wild-type binding (% of wild-type) [4],% wild-type binding (% of wild-type) [5],% wild-type binding (% of wild-type) [6],% wild-type binding (% of wild-type) [7],% wild-type binding (% of wild-type) [8],% wild-type binding (% of wild-type) [9],% inhibition [10],% inhibition [11],koff [12],Kd [13],kon [14],Substance
40 to 50,80,43.6,95.9,86.1,89.4,93.3,55.5,118,–,–,–,–,–,monoclonal antibody CBRLFA-1/1
–,–,103,95.1,–,–,–,101,111,0.08%,98.4%,–,–,–,monoclonal antibody YFC51
–,–,–,–,–,–,–,–,–,–,–,3 s⁻¹,1350 µM,2220 M⁻¹ s⁻¹,"recombinant soluble wild-type αL I-domain (G128 to Y307), made in E. coli (from UniProt P20701 153-332) (receptor)"
